This passage reports binding result and Kd results from article PMC8190142, “Activation of PARP2/ARTD2 by DNA damage induces conformational changes relieving enzyme autoinhibition”.

One series addresses PARP2 WGR-RD-ART (human (Homo sapiens), UniProt Q9UGN5 90-583). Kind of series: X-ray crystallography (2.8 A); FP buffer, salt, pH and temperature not given (as in cited ref 17); crystallization: complex purified in 20 mM Hepes pH 7.5, 300 mM NaCl, 0.5 mM TCEP; crystals. The following applies: protein: recombinant; tags: His-tag construct, TEV cleaved; chain copies: 2; blunt, 16 bp; 2 duplex copies in the biological unit.

Series [1] addresses T1, PARP2 FL E286A (human (Homo sapiens), UniProt Q9UGN5 1-583, E286A). Kind of series: fluorescence polarization; mean and SD of 3 listed KDs (22.43, 26.3, 23.94); FP buffer, salt, pH and temperature not given (as in cited ref 17); crystallization: complex purified in 20 mM Hepes pH 7.5, 300 mM NaCl, 0.5 mM TCEP; crystals. The note with it: protein: recombinant; tags: His-tag construct, TEV cleaved; label: fluorescein on internal T8 of strand 2; blunt, 20 bp.

In series [2] the target is T2, PARP2 FL E286R (human (Homo sapiens), UniProt Q9UGN5 1-583, E286R). Kind of series: fluorescence polarization; mean and SD of 3 listed KDs (12.72, 25.07, 16.53); FP buffer, salt, pH and temperature not given (as in cited ref 17); crystallization: complex purified in 20 mM Hepes pH 7.5, 300 mM NaCl, 0.5 mM TCEP; crystals. The following applies: protein: recombinant; tags: His-tag construct, TEV cleaved; label: fluorescein on internal T8 of strand 2; blunt, 20 bp.
T2 sequence (Q9UGN5 whole entry E286R): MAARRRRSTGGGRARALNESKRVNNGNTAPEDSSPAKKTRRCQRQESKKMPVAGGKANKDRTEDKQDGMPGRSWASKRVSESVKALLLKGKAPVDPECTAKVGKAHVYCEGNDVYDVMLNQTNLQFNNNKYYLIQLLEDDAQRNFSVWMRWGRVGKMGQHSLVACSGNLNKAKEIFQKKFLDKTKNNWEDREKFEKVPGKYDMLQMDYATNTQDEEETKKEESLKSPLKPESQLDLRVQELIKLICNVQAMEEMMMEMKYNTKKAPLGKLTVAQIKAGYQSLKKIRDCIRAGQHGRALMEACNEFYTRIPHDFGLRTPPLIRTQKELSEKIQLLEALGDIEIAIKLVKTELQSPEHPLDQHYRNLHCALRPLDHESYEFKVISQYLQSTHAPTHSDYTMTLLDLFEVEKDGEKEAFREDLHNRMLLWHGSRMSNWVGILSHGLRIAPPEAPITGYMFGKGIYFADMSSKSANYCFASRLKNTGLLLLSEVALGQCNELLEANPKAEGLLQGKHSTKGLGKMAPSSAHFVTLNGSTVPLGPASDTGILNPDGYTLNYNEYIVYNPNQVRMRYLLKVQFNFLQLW

For series [3], the target named is T3, PARP2 FL N129A (human (Homo sapiens), UniProt Q9UGN5 1-583, N129A). Put plainly: fluorescence polarization; mean and SD of 3 listed KDs (58.73, 44.74, 72.15); FP buffer, salt, pH and temperature not given (as in cited ref 17); crystallization: complex purified in 20 mM Hepes pH 7.5, 300 mM NaCl, 0.5 mM TCEP; crystals. The following applies: protein: recombinant; tags: His-tag construct, TEV cleaved; label: fluorescein on internal T8 of strand 2; blunt, 20 bp. A general note: Polarisation of emitted light reports the rotation of a fluorescent probe.
T3 sequence (Q9UGN5 whole entry N129A): as the sequence (Q9UGN5 whole entry E286R) above, with N129A, R286E counted along it

Series [4] deals with T4, PARP2 FL wt (human (Homo sapiens), UniProt Q9UGN5 1-583). Put plainly: fluorescence polarization; mean and SD of 3 listed KDs (28.05, 21.44, 26.07); FP buffer, salt, pH and temperature not given (as in cited ref 17); crystallization: complex purified in 20 mM Hepes pH 7.5, 300 mM NaCl, 0.5 mM TCEP; crystals. The note with it: protein: recombinant; tags: His-tag construct, TEV cleaved; label: fluorescein on internal T8 of strand 2; blunt, 20 bp.
T4 sequence (Q9UGN5 whole entry): as the sequence (Q9UGN5 whole entry E286R) above, with R286E counted along it

Series [5] has as its target T5, PARP2 FL G338A (human (Homo sapiens), UniProt Q9UGN5 1-583, G338A). Put plainly: fluorescence polarization; mean and SD of 3 listed KDs (27.96, 29.72, 25.09); FP buffer, salt, pH and temperature not given (as in cited ref 17); crystallization: complex purified in 20 mM Hepes pH 7.5, 300 mM NaCl, 0.5 mM TCEP; crystals. The following applies: protein: recombinant; tags: His-tag construct, TEV cleaved; label: fluorescein on internal T8 of strand 2; blunt, 20 bp.

Series [6] has as its target T6, PARP2 FL Y201F (human (Homo sapiens), UniProt Q9UGN5 1-583, Y201F). Kind of series: fluorescence polarization; mean and SD of 3 listed KDs (93.24, 46.79, 151.2); FP buffer, salt, pH and temperature not given (as in cited ref 17); crystallization: complex purified in 20 mM Hepes pH 7.5, 300 mM NaCl, 0.5 mM TCEP; crystals. The note with it: protein: recombinant; tags: His-tag construct, TEV cleaved; label: fluorescein on internal T8 of strand 2; blunt, 20 bp.

Series [7] addresses T7, PARP2 FL R153A (human (Homo sapiens), UniProt Q9UGN5 1-583, R153A). Put plainly: fluorescence polarization; mean and SD of 3 listed KDs (232.6, 64.05, 161.3); FP buffer, salt, pH and temperature not given (as in cited ref 17); crystallization: complex purified in 20 mM Hepes pH 7.5, 300 mM NaCl, 0.5 mM TCEP; crystals. The following applies: protein: recombinant; tags: His-tag construct, TEV cleaved; label: fluorescein on internal T8 of strand 2; blunt, 20 bp.

The target of series [8] is T7, PARP2 FL R153A. Put plainly: fluorescence polarization; mean and SD of 3 listed KDs (20.13, 10.37, 8.203); FP buffer, salt, pH and temperature not given (as in cited ref 17); crystallization: complex purified in 20 mM Hepes pH 7.5, 300 mM NaCl, 0.5 mM TCEP; crystals. The following applies: protein: recombinant; tags: His-tag construct, TEV cleaved; label: fluorescein on internal T10; dumbbell of two hairpins (TTTT loops) with one nick.

Series [9] has as its target T3, PARP2 FL N129A. Kind of series: fluorescence polarization; mean and SD of 3 listed KDs (14.36, 8.278, 5.785); FP buffer, salt, pH and temperature not given (as in cited ref 17); crystallization: complex purified in 20 mM Hepes pH 7.5, 300 mM NaCl, 0.5 mM TCEP; crystals. The note with it: protein: recombinant; tags: His-tag construct, TEV cleaved; label: fluorescein on internal T10; dumbbell of two hairpins (TTTT loops) with one nick.

Series [10] addresses T6, PARP2 FL Y201F. Kind of series: fluorescence polarization; mean and SD of 3 listed KDs (46.26, 27.47, 48.04); FP buffer, salt, pH and temperature not given (as in cited ref 17); crystallization: complex purified in 20 mM Hepes pH 7.5, 300 mM NaCl, 0.5 mM TCEP; crystals. The following applies: protein: recombinant; tags: His-tag construct, TEV cleaved; label: fluorescein on internal T10; dumbbell of two hairpins (TTTT loops) with one nick.

The target of series [11] is T5, PARP2 FL G338A. Kind of series: fluorescence polarization; mean and SD of 3 listed KDs (10.62, 9.907, 6.489); FP buffer, salt, pH and temperature not given (as in cited ref 17); crystallization: complex purified in 20 mM Hepes pH 7.5, 300 mM NaCl, 0.5 mM TCEP; crystals. The following applies: protein: recombinant; tags: His-tag construct, TEV cleaved; label: fluorescein on internal T10; dumbbell of two hairpins (TTTT loops) with one nick.

Series [12] addresses T1, PARP2 FL E286A. Put plainly: fluorescence polarization; mean and SD of 3 listed KDs (10.42, 7.271, 6.234); FP buffer, salt, pH and temperature not given (as in cited ref 17); crystallization: complex purified in 20 mM Hepes pH 7.5, 300 mM NaCl, 0.5 mM TCEP; crystals. The following applies: protein: recombinant; tags: His-tag construct, TEV cleaved; label: fluorescein on internal T10; dumbbell of two hairpins (TTTT loops) with one nick.

Series [13] concerns the target T4, PARP2 FL wt. Kind of series: fluorescence polarization; mean and SD of 3 listed KDs (10.74, 7.933, 8.182); FP buffer, salt, pH and temperature not given (as in cited ref 17); crystallization: complex purified in 20 mM Hepes pH 7.5, 300 mM NaCl, 0.5 mM TCEP; crystals. The following applies: protein: recombinant; tags: His-tag construct, TEV cleaved; label: fluorescein on internal T10; dumbbell of two hairpins (TTTT loops) with one nick.

Series [14] has as its target T2, PARP2 FL E286R. Kind of series: fluorescence polarization; mean and SD of 3 listed KDs (18.12, 7.571, 5.497); FP buffer, salt, pH and temperature not given (as in cited ref 17); crystallization: complex purified in 20 mM Hepes pH 7.5, 300 mM NaCl, 0.5 mM TCEP; crystals. The note with it: protein: recombinant; tags: His-tag construct, TEV cleaved; label: fluorescein on internal T10; dumbbell of two hairpins (TTTT loops) with one nick.

T5 sequence (Q9UGN5 whole entry G338A): as the sequence (Q9UGN5 whole entry E286R) above, with R286E, G338A counted along it
T1 sequence (Q9UGN5 whole entry E286A): as the sequence (Q9UGN5 whole entry E286R) above, with R286A counted along it
T7 sequence (Q9UGN5 whole entry R153A): as the sequence (Q9UGN5 whole entry E286R) above, with R153A, R286E counted along it
T6 sequence (Q9UGN5 whole entry Y201F): as the sequence (Q9UGN5 whole entry E286R) above, with Y201F, R286E counted along it
Chain of PARP2 WGR-RD-ART (Q9UGN5 90-583): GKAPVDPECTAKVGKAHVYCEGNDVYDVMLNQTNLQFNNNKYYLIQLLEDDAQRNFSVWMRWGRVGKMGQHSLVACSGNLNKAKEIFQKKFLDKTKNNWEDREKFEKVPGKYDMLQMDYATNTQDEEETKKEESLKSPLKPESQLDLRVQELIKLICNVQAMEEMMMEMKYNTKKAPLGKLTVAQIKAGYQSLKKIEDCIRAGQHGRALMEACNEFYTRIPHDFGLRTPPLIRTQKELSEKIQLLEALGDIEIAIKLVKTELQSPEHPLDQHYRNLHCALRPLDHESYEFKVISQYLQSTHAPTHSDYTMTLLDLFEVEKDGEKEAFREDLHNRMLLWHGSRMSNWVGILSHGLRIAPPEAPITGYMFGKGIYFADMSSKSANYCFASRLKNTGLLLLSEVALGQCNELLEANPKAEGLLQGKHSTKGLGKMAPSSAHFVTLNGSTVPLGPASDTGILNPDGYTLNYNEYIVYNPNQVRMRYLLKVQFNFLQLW

B1: DNA-1 (dsDNA)
DNA 1: GACGACCCGGAGCACA
DNA 2: TGTGCTCCGGGTCGTC
modifications: 5'-phosphate on strand 1
Take B1: the binding result in the series with PARP2 WGR-RD-ART is “binds”.

B2: DNA-9 dsDNA (dsDNA)
DNA 1: GACGCAACCCGGAGAACACA
DNA 2: TGTGTTCTCCGGGTTGCGTC
modifications: 5'-phosphate on strand 1
The Kd is a measure of binding affinity in units of concentration. For B2, the Kd in the series with PARP2 FL E286A [1] was found to be 24.2 ± 1.96 nM; with PARP2 FL E286R [2], 18.1 ± 6.32 nM; in the series with PARP2 FL N129A [3], 58.5 ± 13.7 nM; with PARP2 FL wt [4] it was 25.2 ± 3.39 nM; with PARP2 FL G338A [5] it was 27.6 ± 2.34 nM; with PARP2 FL Y201F [6] it was 97.1 ± 52.3 nM. In the series with PARP2 FL R153A [7], the Kd was 153 ± 84.6 nM.

B3: DNA-8 nicked dumbbell (structured_DNA)
DNA: GGAAGTCTTTTGACTTCCTCGAAGCTTTTGCTTCGA
modifications: 5'-phosphate
Take B3: the equilibrium dissociation constant (Kd) is 12.9 ± 6.35 nM in the series with PARP2 FL R153A [8]; 9.47 ± 4.41 nM in the series with PARP2 FL N129A [9]; 40.6 ± 11.4 nM in the series with PARP2 FL Y201F [10]; 9.01 ± 2.21 nM in the series with PARP2 FL G338A [11]; 7.98 ± 2.18 nM in the series with PARP2 FL E286A [12]; 8.95 ± 1.55 nM with PARP2 FL wt [13]. For the same molecule, in the series with PARP2 FL E286R [14], the Kd is 10.4 ± 6.77 nM.
